The values below come from the supplement of paper PMC9170038.

In the data set the test system is K4 kissing-loop RNA reporter. As to the kind of experiment: apparent KD of K4 kissing-loop reporter; higher = weaker reporter binding. The settings on record: Eterna round: R107. As to the method: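 RNA-MaP round R107: designed RNA switches with theophylline, tryptophan, arginine or FMN aptamers are transcribed on-chip within common flanks. They are titrated with a labelled K4 kissing-loop RNA reporter in RNA-MaP buffer (100 mM Tris pH 7.5, 80 mM KCl, 4 mM MgCl2), without ligand or with the indicated ligand. Median apparent KD per design.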

Setting [1] is: input ligand: theophylline 20 uM.
Where [2] appears, read: input ligand: tryptophan 2.4 mM.
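Further: bound reporter read as fluorescence of individual clusters on recovered sequencing chips by microscopy, with normalized cluster intensities fitted with a binding model.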

Regarding “AAUAUAUAGUGAAGGAGCGCGUAUAGCAGUGAUGUUGCUUACUUAUUAUUAUAUUUUUUGACGCAGGUAGGUCGCACUAUAUAUA [JR_ExcArginiB_Sub021]”, the “apparent KD of K4 kissing-loop reporter” value (input ligand: FMN 200 uM) was 0.242 µM; the “apparent KD of K4 kissing-loop reporter” value (input ligand: arginine 13.2 mM) came to 0.181 µM; the “apparent KD of K4 kissing-loop reporter” value (input ligand: none) was determined as 0.268 µM; the “apparent KD of K4 kissing-loop reporter” value under setting [1] was found to be 0.227 µM; the “apparent KD of K4 kissing-loop reporter” value under setting [2] was found to be 0.215 µM.
With “UUUAAACAUAGUGAUGUUAUGUAACAGUGACGAGGACCGGUACGGCCGCCACUCGAGAGAGAUAGUGGUCAUGCAAAUGUAUGCC [#16 K4 Tryptophan A Same State]”, the “apparent KD of K4 kissing-loop reporter” value worked out at 0.145 µM (input ligand: FMN 200 uM); 0.167 µM (input ligand: arginine 13.2 mM); 0.123 µM (input ligand: none); 0.136 µM under setting [1]; 0.137 µM under setting [2].
In the same order, the values of “GUUGGGUGGGUUAAAGAAUUUGUCUGACAACGAGGACCGGUACGGCCGCCACUCGAGUGAUGUUCGAGAAGAAAGAAAGAAAGAA” are 0.0664 µM, 0.123 µM, 0.0954 µM, 0.146 µM and 0.126 µM.
“AAAUGAAGGGCUCGCAGUGAUGUUGCGAGACGAGGACCGGUACGGCCGCCACUCGGCCGCUACUUUGACUCGGGCUUUAAGCUAC [Usarusteer]”: the “apparent KD of K4 kissing-loop reporter” value is, setting by setting: (input ligand: FMN 200 uM) 0.148 µM; (input ligand: arginine 13.2 mM) 0.139 µM; (input ligand: none) 0.145 µM; under setting [1], 0.14 µM; under setting [2], 0.138 µM.
In the case of “GCGUCGCAGGUCGCAGUACCAUCGCGGGAUACCAGCCCUGCUACCGGCCCUUGGCAGCCCGGUUAUCGGUUAGUGAUGUUAGCCA [theeternabot_sameState_KL_Theo_A_44]”, the “apparent KD of K4 kissing-loop reporter” value runs as follows: (input ligand: FMN 200 uM) 0.642 µM; (input ligand: arginine 13.2 mM) 0.531 µM; (input ligand: none) 0.739 µM; under setting [1], 0.621 µM; under setting [2], 0.591 µM.
On to “AGUGAUGUUUUUUUUAAGAGUGAUGUUUUUCGAGGACCGGUACGGCCGCCACUCGAGUGAGGAGUGCGGUGGUGAGAUGUUGAGU [oomullin]”, for which the “apparent KD of K4 kissing-loop reporter” value reads like this: (input ligand: FMN 200 uM) 0.549 µM; (input ligand: arginine 13.2 mM) 0.466 µM; (input ligand: none) 0.677 µM; under setting [1], 0.589 µM; under setting [2], 0.519 µM.
With “UCGAAGGAUGGAAGGAGCGCUCGUCAGUCCUGCGAGUGAUGUUCGUGGGUAAAUAGUCGCGAGCAGGUAGGUCGCCAUCUUGAGA [Lageso]”, the “apparent KD of K4 kissing-loop reporter” value was 0.11 µM (input ligand: FMN 200 uM); 0.0969 µM (input ligand: arginine 13.2 mM); 0.101 µM (input ligand: none); 0.152 µM under setting [1]; 0.118 µM under setting [2].
The like results for “GGCAGAGCGCGAAGGAGCGCCCUGACAGGUUGCUGCCGUGGGCAGUGAUGUUGCUCAGUCCGGCAGGUAGGUCGCGUGCUCUGCC” were, in that order, 0.167 µM, 0.115 µM, 0.225 µM, 0.116 µM and 0.148 µM.
On to “UAAGAGGACCACUGCGAGAGUCCUCGAAUACGAGGACCGGUACGGCCGCCACUCGAUAACUUGCAGUGAUGUUGCAAGUAAGAAU [BrourdMod 3 - Jieux - Same State Tryptophan A]”, for which the “apparent KD of K4 kissing-loop reporter” value reads like this: (input ligand: FMN 200 uM) 0.0989 µM; (input ligand: arginine 13.2 mM) 0.0954 µM; (input ligand: none) 0.0941 µM; under setting [1], 0.102 µM; under setting [2], 0.081 µM.
On to “AAGGAUCAGAGAGUGAUGUUCUCUAAUAAACGAGGACCGGUACGGCCGCCACUCGAAUAAGAUCCAGUCCUACGAAAAGUAGGAC [Omei inspired 6]”, for which the “apparent KD of K4 kissing-loop reporter” value amounted to 0.431 µM (input ligand: FMN 200 uM); 0.338 µM (input ligand: arginine 13.2 mM); 0.485 µM (input ligand: none); 0.613 µM under setting [1]; 0.132 µM under setting [2].
The like results for “CAGCGGAGUGAUGUUCUGCUUACUCCGGAUACCAGCUUCGCCAGAGGCCCUUGGCAGCCGGGCGGCUCAGUGAUGUUGGGUUGCU [Same State Theophylline A GF 16]” were, in that order, 0.934 µM, 0.532 µM, 0.87 µM, 0.979 µM and 0.765 µM.
For “AUAGGAGUGAUGUUCCUUAGUCCCUCCGAUACCAGUAUGGAAACAUACCCUUGGCAGCGGUGGACCGCAGAUUAGGAAACUAGUC [Theophylline A K4 4]”, the “apparent KD of K4 kissing-loop reporter” value came out at 0.232 µM (input ligand: FMN 200 uM); 0.238 µM (input ligand: arginine 13.2 mM); 0.216 µM (input ligand: none); 0.231 µM under setting [1]; 0.206 µM under setting [2].
The like results for “UACUAUAGUGAUGUUAUAGAUAAACCAGAUACCAGUGUAACAUAACACCCUUGGCAGCUGAUGAGGGAAAAUAUAAAUGUGUAUU [AstrosSSTHe-A#4newdesignED10.09]” were, in that order, 0.196 µM, 0.204 µM, 0.198 µM, 0.197 µM and 0.197 µM.
As to “GACAUACCUAUGGAGGGCCGAUCGAACAAACGAGGACCGGUACGGCCGCCACUCGUGGGCAGUGAUGUUGACCCUGGGAGGUAAG”, the “apparent KD of K4 kissing-loop reporter” value stood at 0.373 µM (input ligand: FMN 200 uM); 0.41 µM (input ligand: arginine 13.2 mM); 0.544 µM (input ligand: none); 0.236 µM under setting [1]; 0.598 µM under setting [2].
In the same order, the values of “ACAUCGGUUGAGAGUGAUGUUCCUUGUGUUCGAGGACCGGUACGGCCGCCACUCGGGUAGAAAAUAACAGAUGUGUUUGAUUUUU [BDazzled - #16 SS Tryptophan A]” are 0.163 µM, 0.0884 µM, 0.144 µM, 0.308 µM and 0.244 µM.
In the same order, the values of “GGCCUGGUCGCCUAGUGAUUGUCGGUAGGACGAGGACCGGUACGGCCGCCACUCGGCUUACCCAGUGAUGUUGGGUAUCCGUGGC [Onercelama]” are 0.194 µM, 0.136 µM, 0.177 µM, 0.176 µM and 0.235 µM.
In the same order, the values of “ACACUUUACGUAGGAUAUGCGACGAGUGAUGUUCGUCAGGCGGCUUUAGCUUAAGCAAGCCGCCUAGCAGAAGGACGGGCAGUGU [Bigemalaza]” are 0.139 µM, 0.163 µM, 0.179 µM, 0.185 µM and 0.173 µM.
Turning to “CGCUGGGCGAGUGAUGUUCGCUCACGUGAUACCAGUGCCAUCCAACACCCUUGGCAGCACGCGGGCAGUGAUGUUGUCCUUGUAU [Exclusion Theophylline A GF6]”, the “apparent KD of K4 kissing-loop reporter” value reads like this: (input ligand: FMN 200 uM) 0.13 µM; (input ligand: arginine 13.2 mM) 0.117 µM; (input ligand: none) 0.127 µM; under setting [1], 0.109 µM; under setting [2], 0.119 µM.
